Experimental data from publication PMC5145805, “Structural Basis for Selective Interaction between the ESCRT Regulator HD-PTP and UBAP1” (Structure(London, England:1993), 2016).
Positions count from the first letter of the chain named. Numbers in names are those of the source. Entries after “also recorded” stand apart in the source; their conditions may differ. Each block holds one molecule with its values, some of them ahead of it.

What was measured:
[1] = tested on: FKBP-HD-PTPBro1-CC in HeLa cells; assay: Mitochondrial targeting (FKBP-HD-PTPBro1-CC / Mito-FRB relocalization, immunofluorescence); format: cell-based; conditions: rapamycin 1 μM, 3 hr; for relocation to mitochondria with HD-PTPBro1-CC: HeLa
Description: Mitochondrial targeting experiments were performed as previously described ([Sato et al., 2015]). HeLa cells were transiently transfected with HD-PTPBro1-CC containing an N-terminal FKBP sequence and a C-terminal myc tag (cloned into pcDNA5), Mito-FRB (a gift from Martin Lowe, Manchester, UK), and either GFP, WT UBAP1-GFP, or F268S UBAP1-GFP (in pEGFP). Mitochondrial relocation of FKBP-HD-PTPBro1-CC-myc was induced by addition of 1 μM rapamycin (Sigma) for 3 hr. Cells were then prepared for immunofluorescence microscopy as above. Mitochondrial relocation of GFP-tagged constructs was scored in three independent experiments (100 cells counted per experiment).

HD-PTPBro1-CC = biological target: T1, HD-PTPBro1-CC (Homo sapiens, UniProt Q9H3S7); assay: Yeast two-hybrid interaction with HD-PTPBro1-CC; format: binding; conditions: Matchmaker Gold, each triplicate experiment repeated at least three times
T1 construct: HD-PTPBro1-CC (1–714) was cloned into a pET28a vector with restriction sites Nde1 and Xho1; made in house; host or cells: Escherichia coli BL21(DE3)
T1 sequence (Q9H3S7 1-714): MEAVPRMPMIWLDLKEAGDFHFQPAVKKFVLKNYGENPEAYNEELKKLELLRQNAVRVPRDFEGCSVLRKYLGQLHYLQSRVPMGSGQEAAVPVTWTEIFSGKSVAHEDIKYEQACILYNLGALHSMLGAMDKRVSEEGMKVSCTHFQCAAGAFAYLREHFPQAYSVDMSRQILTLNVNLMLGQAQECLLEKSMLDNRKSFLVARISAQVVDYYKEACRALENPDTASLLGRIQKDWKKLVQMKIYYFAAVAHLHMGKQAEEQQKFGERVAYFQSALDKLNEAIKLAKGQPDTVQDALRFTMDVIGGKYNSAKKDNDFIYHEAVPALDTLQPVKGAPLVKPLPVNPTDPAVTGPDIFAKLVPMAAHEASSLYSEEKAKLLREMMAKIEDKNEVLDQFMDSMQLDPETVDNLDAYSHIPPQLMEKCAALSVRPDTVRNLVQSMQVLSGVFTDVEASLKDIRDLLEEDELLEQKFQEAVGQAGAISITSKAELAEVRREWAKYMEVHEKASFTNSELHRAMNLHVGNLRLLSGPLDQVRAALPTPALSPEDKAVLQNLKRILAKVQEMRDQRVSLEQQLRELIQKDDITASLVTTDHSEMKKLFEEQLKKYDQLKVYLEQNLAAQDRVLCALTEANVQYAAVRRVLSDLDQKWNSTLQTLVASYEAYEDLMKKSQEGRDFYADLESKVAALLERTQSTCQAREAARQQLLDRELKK
Description: HD-PTPBro1-CC, HD-PTPBro1-CC F678D, and AlixBro1-V cloned into pGBKT7 were used as described previously ([Stefani et al., 2011]). UBAP1 (122–308) was cloned into pGADT7. Further deletion and missense mutations in UBAP1 as indicated were generated by standard PCR-based mutagenesis. Interactions were tested using the Matchmaker Gold system (Clontech) as described previously ([Stefani et al., 2011]) Each triplicate experiment was repeated at least three times.

[2] = biological target: T2, HD-PTPCC (coiled-coil domain of HD-PTP, residues 363-712) (UniProt Q9H3S7 363-712); assay: SPR; ProteOn XPR36; HD-PTP constructs (50-100 ug/mL) immobilised on an HTE chip, peptides injected (50 uL at 100 uL/min); 25 C; 10 mM HEPES pH 7.4, 150 mM NaCl, 0.05% Tween 20; equilibrium binding model; conditions: both partners purified
T2 construct: HD-PTP (His domain protein tyrosine phosphatase; PTPN23), coiled-coil domain, residues 363-712; Form used in the biosensor (SPR) and NMR experiments; immobilisation was on an HTE chip, which probably captures the His tag (surmise); also called CC domain of HD-PTP; WT HD-PTPCC; source: E. coli BL21(DE3), purified (nickel beads, Mono Q anion exchange, Superdex200)
T2 sequence (looked up): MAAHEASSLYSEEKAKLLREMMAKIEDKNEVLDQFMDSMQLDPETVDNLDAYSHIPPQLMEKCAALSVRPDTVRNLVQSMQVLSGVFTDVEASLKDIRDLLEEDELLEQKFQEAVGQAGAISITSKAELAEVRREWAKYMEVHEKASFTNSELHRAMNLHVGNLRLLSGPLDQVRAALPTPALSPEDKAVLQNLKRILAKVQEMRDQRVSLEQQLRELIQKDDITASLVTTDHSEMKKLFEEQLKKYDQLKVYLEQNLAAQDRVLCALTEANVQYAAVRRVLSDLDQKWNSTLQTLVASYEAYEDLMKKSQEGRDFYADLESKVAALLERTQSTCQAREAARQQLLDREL

[3] = biological target: T3, HD-PTP_(Bro1-CC) (residues 1-714), His6-tagged (UniProt Q9H3S7 1-714); assay: as above; conditions: both partners purified
T3 construct: HD-PTP (PTPN23), Bro1 and coiled-coil domains, residues 1-714; Precipitated by an anti-His antibody in the co-immunoprecipitation; immobilised on an HTE chip in SPR; also called His6-HD-PTP_(Bro1-CC); source: E. coli BL21(DE3), purified (nickel beads, Mono Q anion exchange, Superdex200)
T3 sequence (looked up): T1 sequence (Q9H3S7 1-714)

CC domain of HD-PTP = conditions: ref Stefani et al., 2011; cited from earlier work
Description: Specific interaction with UBAP1 is central to the function of HD-PTP ([Stefani et al., 2011]), and their cooperation is essential to regulate integrin signaling and cell migration ([Kharitidi et al., 2015]). Therefore, we aimed to define this interaction at the molecular level. We previously identified the central region of UBAP1 (122–309) as binding to the CC domain of HD-PTP in a yeast two-hybrid (Y2H) screen ([Stefani et al., 2011]). […] In ad ...

Molecule: CO[C@H]1C[C@@H]2CC[C@@H](C)[C@@](O)(O2)C(=O)C(=O)N2CCCC[C@H]2C(=O)O[C@H]([C@H](C)C[C@@H]2CC[C@@H](O)[C@H](OC)C2)CC(=O)[C@H](C)/C=C(\C)[C@@H](O)[C@@H](OC)C(=O)[C@H](C)C[C@H](C)/C=C/C=C/C=C/1C [rapamycin, reference compound]
relocalization of HD-PTPBro1-CC to mitochondria ([1]; FKBP-HD-PTPBro1-CC with mito-FRB): efficient relocalization

Y2H binding to HD-PTP (HD-PTPBro1-CC): minimal region for effective binding
Molecule: residues 260–269: minimal region of UBAP1 for effective binding to HD-PTP (VSNIKSLSFP; UniProt Q9NZ09 260-269, looked up, fragment)

B1: UBAP1-GFP: UBAP1 GFP fusion, wild-type (protein)
chain: MASKKLGADFHGTFSYLDDVPFKTGDKFKTPAKVGLPIGFSLPDCLQVVREVQYDFSLEKKTIEWAEEIKKIEEAEREAECKIAEAEAKVNSKSGPEGDSKMSFSKTHSTATMPPPINPILASLQHNSILTPTRVSSSATKQKVLSPPHIKADFNLADFECEEDPFDNLELKTIDEKEELRNILVGTTGPIMAQLLDNNLPRGGSGSVLQDEEVLASLERATLDFKPLHKPNGFITLPQLGNCEKMSLSSKVSLPPIPAVSNIKSLSFPKLDSDDSNQKTAKLASTFHSTSCLRNGTFQNSLKPSTQSSASELNGHHTLGLSALNLDSGTEMPALTSSQMPSLSVLSVCTEESSPPNTGPTVTPPNFSVSQVPNMPSCPQAYSELQMLSPSERQCVETVVNMGYSYECVLRAMKKKGENIEQILDYLFAHGQLCEKGFDPLLVEEALEMHQCSEEKMMEFLQLMSKFKEMGFELKDIKEVLLLHNNDQDNALEDLMARAGAS
modifications: left off: GFP, end not stated, kept
notes: UBAP1 GFP fusion, wild-type
relocation to mitochondria with HD-PTPBro1-CC [1]: relocated to mitochondria; also recorded: translocates to mitochondria

B2: P269A: P269A mutation in UBAP1, Y2H fragment (protein, UniProt Q9NZ09 1-502, looked up, variant P269A)
Ubiquitin-associated protein 1: B1 chain with P269A
Y2H binding to HD-PTP (HD-PTPBro1-CC): no obvious effect on binding; also recorded: weaker phenotype

B3: L271A: L271A mutation in UBAP1, Y2H fragment (protein, UniProt Q9NZ09 1-502, looked up, variant L271A)
Ubiquitin-associated protein 1: B1 chain with L271A
Y2H binding to HD-PTP (HD-PTPBro1-CC): no obvious effect on binding; also recorded: weaker phenotype

B4: UBAP1-GFP F268S: UBAP1-GFP with F268S mutation (protein)
chain: B1 chain with F268S
modifications: left off: GFP, end not stated, kept
notes: UBAP1-GFP with F268S mutation
relocation to mitochondria with HD-PTPBro1-CC [1]: not

Y2H binding to HD-PTP (HD-PTPBro1-CC): abolished binding
B5: F268S: F268S mutation in the FPXL motif of UBAP1, Y2H fragment (protein, UniProt Q9NZ09 1-502, looked up, variant F268S)
Ubiquitin-associated protein 1: B1 chain with F268S

Kd [2]: 66.3 ± 0.35 µM
Kd [3]: 31.9 ± 0.85 µM
Molecule: SNIKSLSFPKLDSDDSNQKT (peptide, UniProt Q9NZ09 261-280, looked up, also called UBAP1C peptide) [UBAP1C (UBAP1 peptide containing residues 261-280)]

B6: UBAP1 (122–309): central region of UBAP1 (122–309) (protein)
chain: ASLQHNSILTPTRVSSSATKQKVLSPPHIKADFNLADFECEEDPFDNLELKTIDEKEELRNILVGTTGPIMAQLLDNNLPRGGSGSVLQDEEVLASLERATLDFKPLHKPNGFITLPQLGNCEKMSLSSKVSLPPIPAVSNIKSLSFPKLDSDDSNQKTAKLASTFHSTSCLRNGTFQNSLKPSTQS
modifications: left off: Gal4 activation domain (from the vector pGADT7), end not stated, kept
Y2H binding to CC domain of HD-PTP (CC domain of HD-PTP): binding
